# Measurements published in US20190300590A1 (PROTAGONIST THERAPEUTICS, published 2019).
# *1 amine or outer side, *2 acyl side, *3 side chain or, on linkers, in order; H or OH if unused. Bridges are numbered along the chain shown (N, C = ends). Primed or numbered codes have the meaning given here. [ ]: non-standard residue; d: D form. Phe(4-OMe)(3) = O-methyl-L-tyrosine (4-methoxy-L-phenylalanine), COc1ccc(C[C@H](N[*:1])C(=O)[*:2])cc1; Phe(4-OMe)(5) = O-methyl-L-tyrosine (4-methoxy-Phe), COc1ccc(C[C@H](N[*:1])C(=O)[*:2])cc1; Phe(4-OMe)(4) = O-methyl-L-tyrosine, COc1ccc(C[C@H](N[*:1])C(=O)[*:2])cc1; Phe(4-tBu) = CC(C)(C)c1ccc(C[C@H](N)C(=O)O)cc1; Bip = N[C@@H](Cc1ccc(-c2ccccc2)cc1)C(=O)O; 2Nal = N[C@@H](Cc1ccc2ccccc2c1)C(=O)O; AEF = NCCOc1ccc(C[C@H](N)C(=O)O)cc1; Gly(octyl) = CCCCCCCC[C@H](N)C(=O)O; hArg = N=C(N)NCCCC[C@H](N)C(=O)O; αMeL = CC(C)C[C@](C)(N)C(=O)O; Pen = CC(C)(S)[C@H](N)C(=O)O; hLeu = CC(C)CC[C@H](N)C(=O)O; αMeK = C[C@](N)(CCCCN)C(=O)O; αMeS = C[C@](N)(CO)C(=O)O; Iva = CC[C@](C)(N)C(=O)O; Abu = CC[C@H](N)C(=O)O; Dap = NC[C@H](N)C(=O)O; Aib = CC(C)(N)C(=O)O; AEA = NCCOCC(=O)O
# T1: IL23R_huFC (human, UniProt Q5VWK5 24-353)
# T1 sequence (looked up): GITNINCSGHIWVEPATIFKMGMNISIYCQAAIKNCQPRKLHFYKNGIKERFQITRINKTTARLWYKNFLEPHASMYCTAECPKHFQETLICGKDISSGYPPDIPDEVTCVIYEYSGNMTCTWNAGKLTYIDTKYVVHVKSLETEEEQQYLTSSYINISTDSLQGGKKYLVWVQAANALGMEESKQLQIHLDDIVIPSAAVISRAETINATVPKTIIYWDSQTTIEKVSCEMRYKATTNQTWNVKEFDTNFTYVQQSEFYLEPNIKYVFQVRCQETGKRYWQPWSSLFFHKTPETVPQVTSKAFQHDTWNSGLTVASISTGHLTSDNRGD
# T2: IL-23R on human cells (IL-23R-expressing DB cells; human NK cells) (human, UniProt Q5VWK5 24-629)
# T2 sequence (looked up): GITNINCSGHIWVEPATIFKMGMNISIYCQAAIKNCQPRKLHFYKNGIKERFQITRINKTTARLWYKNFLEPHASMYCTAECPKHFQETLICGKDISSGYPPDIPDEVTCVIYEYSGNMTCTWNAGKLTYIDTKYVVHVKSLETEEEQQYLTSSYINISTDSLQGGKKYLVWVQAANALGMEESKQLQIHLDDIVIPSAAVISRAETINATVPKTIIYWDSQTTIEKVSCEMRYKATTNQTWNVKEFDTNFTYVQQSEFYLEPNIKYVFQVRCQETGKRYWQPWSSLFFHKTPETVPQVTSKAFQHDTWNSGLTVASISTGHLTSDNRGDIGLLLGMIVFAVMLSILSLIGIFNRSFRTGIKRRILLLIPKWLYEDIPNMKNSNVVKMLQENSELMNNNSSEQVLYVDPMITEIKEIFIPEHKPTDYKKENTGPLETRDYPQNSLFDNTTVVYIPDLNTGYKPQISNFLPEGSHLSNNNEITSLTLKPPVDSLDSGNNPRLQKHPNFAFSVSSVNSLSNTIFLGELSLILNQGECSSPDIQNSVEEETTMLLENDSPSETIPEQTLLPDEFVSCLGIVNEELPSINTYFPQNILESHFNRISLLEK
# Target: T1, IL23R_huFC
# Experiment: human ELISA vs IL-23
row,Binder,IC50 [nM]
1,Ac-[Abu]QTWQC[Gly(octyl)][2Nal][αMeK]K(Ac)NG-NH2 (thioether 1-6) [Ac-Cyclo-[[Abu]-QTWQC]-[Octgly]-[2-Nal]-[α-MeLys]-[Lys(Ac)]-NG-NH2],~10000
2,Ac-[Abu]QTYQC[Phe(4-OMe)(5)][2Nal][αMeK]K(Ac)NG-NH2 (thioether 1-6) [Ac-Cyclo-[[Abu]-QTYQC]-[Phe(4-OMe)]-[2-Nal]-[α-MeLys]-[Lys(Ac)]-NG-NH2],~10000
3,Ac-[Abu]QTWQ[Pen]YW[hLeu]ENG-NH2 (thioether 1-6) [Ac-Cyclo-[[Abu]-QTWQ-[Pen]]-YW-[hLeu]-ENG-NH2],> 1000
4,Ac-[Abu]QTWQ[dC]YW[hLeu]ENG-NH2 (thioether 1-6) [Ac-Cyclo-[Abu]-QTWQ-(D)Cys]]-YW-[hLeu]-ENG-NH2],> 1000
5,Ac-[Abu]QTWQC[Phe(4-OMe)(3)][Gly(octyl)][αMeK]K(Ac)NG-NH2 (thioether 1-6) [Ac-Cyclo-[[Abu]-QTWQC]-[Phe(4-OMe)]-[Octgly]-[α-MeLys]-[Lys(Ac)]-NG-NH2],~10000
6,Ac-[Abu]QTWQC[AEF]W[αMeL]ENG-NH2 (thioether 1-6) [Ac-Cyclo-[[Abu]-QTWQC]-[Phe[4-(2-aminoethoxy)]]-W-[α-Me-Leu]-ENG-NH2],< 10
7,Ac-[Abu]QTWQC[Phe(4-OMe)(3)][Phe(4-tBu)][αMeK]ENG-NH2 (thioether 1-6) [Ac-Cyclo-[[Abu]-QTWQC]-[Phe(4-OMe)]-[Phe(4-tBu)]-[α-MeLys]-ENG-NH2],> 1000
8,Ac-[Abu]QTWQC[AEF][2Nal][Aib]KNG-NH2 (thioether 1-6) [Ac-Cyclo-[[Abu]-QTWQC]-[Phe[4-(2-aminoethoxy)]]-[2-Nal]-[Aib]-KNG-NH2],< 10
9,Ac-[Abu]QTWQC[AEF][2Nal][Aib]K(Ac)NG-NH2 (thioether 1-6) [Ac-Cyclo-[[Abu]-QTWQC]-[Phe[4-(2-aminoethoxy)]]-[2-Nal]-[Aib]-[Lys(Ac)]-NG-NH2],< 10
10,XQTWQCFXXKNG (as bracketed in name; thioether cyclo) [Ac-Cyclo-[[Abu]-QTWQC]-[Phe[4-(2-aminoethoxy)]]-[2-Nal]-[α-Me-Orn]-[Lys(Ac)]-NG-NH2],< 10
11,Ac-[Abu]TWQC[AEF][2Nal][αMeK]ENG-NH2 (thioether 1-5) [Ac-Cyclo-[[Abu]-TWQC]-[Phe[4-(2-aminoethoxy)]]-[2-Nal]-[α-MeLys]-ENG-NH2],< 10
12,Ac-R[Abu]QTWQC[AEF][2Nal][αMeK]ENN-NH2 (thioether 2-7) [Ac-Arg-Cyclo-[[Abu]-QTWQC]-[Phe[4-(2-aminoethoxy)]]-[2-Nal]-[α-MeLys]-ENN-NH2],< 10
13,Ac-[Abu]QTWQC[AEF]W[αMeK]K(Ac)[Dap]G-NH2 (thioether 1-6) [Ac-Cyclo-[[Abu]-QTWQC]-[Phe[4-(2-aminoethoxy)]]-W-[α-MeLys]-[Lys(Ac)]-[Dap]-G-NH2],> 1000
14,Ac-[Abu]QT[Bip]QC[Phe(4-OMe)(4)][2Nal][αMeK]K(Ac)NG-NH2 (thioether 1-6) [Ac-Cyclo-[[Abu]-QT-[Bip]-QC]-[Phe(4-OMe)]-[2-Nal][α-MeLys]-[Lys(Ac)]-NG-NH2],~10000
15,XQTWQCFXKXNG (as bracketed in name; thioether cyclo) [Ac-Cyclo-[[Abu]-QTWQC]-[Phe[4-(2-aminoethoxy)]]-[2-Nal]-[α-MeLys]-[Orn]-NG-NH2],< 10

# Now from value to binder:
row,IC50 [nM],Binder
1,< 10,Ac-[Abu]QTWQC[AEF][2Nal][αMeS]K(Ac)NG-NH2 (thioether 1-6) [Ac-Cyclo-[[Abu]-QTWQC]-[Phe[4-(2-aminoethoxy)]]-[2-Nal]-[α-MeSer]-[Lys(Ac)]-NG-NH2]
2,< 10,Ac-[Abu]QTWQC[AEF][2Nal][αMeK]NNG-NH2 (thioether 1-6) [Ac-Cyclo-[[Abu]-QTWQC]-[Phe[4-(2-aminoethoxy)]]-[2-Nal]-[α-MeLys]-NNG-NH2]
3,< 10,Ac-[Abu]QTWQC[AEF][2Nal][αMeK][hArg]NG-NH2 (thioether 1-6) [Ac-Cyclo-[[Abu]-QTWQC]-[Phe[4-(2-aminoethoxy)]]-2-Nal]-[α-MeLys]-hRNG-NH2]
4,< 10,Ac-[Abu]QTWQC[AEF][2Nal][αMeK]QNG-NH2 (thioether 1-6) [Ac-Cyclo-[[Abu]-QTWQC]-[Phe[4-(2-aminoethoxy)]]-[2-Nal]-[α-MeLys]-QNG-NH2]
5,< 10,Ac-[Abu]QTWQC[AEF][2Nal][Iva]K(Ac)NG-NH2 (thioether 1-6) [Ac-Cyclo-[[Abu]-QTWQC]-[Phe[4-(2-aminoethoxy)]]-[2-Nal]-[α-Me-Gly(Ethyl)]Lys(Ac)]-NG-NH2]
6,< 10,Ac-[Abu]TTWQC[AEF][2Nal][αMeK]ENG-NH2 (thioether 1-6) [Ac-Cyclo-[[Abu]-TTWQC]-[Phe[4-(2-aminoethoxy)]]-[2-Nal]-[α-MeLys]-ENG-NH2]
7,< 10,Ac-[Abu]QTWQC[AEF][2Nal][αMeK]K(Ac)NG[AEA][dK]-NH2 (thioether 1-6) [Ac-Cyclo-[[Abu]-QTWQC]-[Phe[4-(2-aminoethoxy)]]-[2-Nal][α-MeLys]-[Lys(Ac)]--NG-[AEA]-[(D)Lys]-NH2]

# Target: T2, IL-23R on human cells …
# Experiment: cell-based or functional assay
row,Binder,pStat3 HTRF IC50 [nM]
1,Ac-[Abu]QTWQC[AEF]W[αMeL]ENG-NH2 (thioether 1-6) [Ac-Cyclo-[[Abu]-QTWQC]-[Phe[4-(2-aminoethoxy)]]-W-[α-Me-Leu]-ENG-NH2],< 10
2,Ac-[Abu]QTWQC[AEF][2Nal][Aib]KNG-NH2 (thioether 1-6) [Ac-Cyclo-[[Abu]-QTWQC]-[Phe[4-(2-aminoethoxy)]]-[2-Nal]-[Aib]-KNG-NH2],< 10
3,Ac-[Abu]QTWQC[AEF][2Nal][Aib]K(Ac)NG-NH2 (thioether 1-6) [Ac-Cyclo-[[Abu]-QTWQC]-[Phe[4-(2-aminoethoxy)]]-[2-Nal]-[Aib]-[Lys(Ac)]-NG-NH2],< 10
4,XQTWQCFXXKNG (as bracketed in name; thioether cyclo) [Ac-Cyclo-[[Abu]-QTWQC]-[Phe[4-(2-aminoethoxy)]]-[2-Nal]-[α-Me-Orn]-[Lys(Ac)]-NG-NH2],< 10
5,Ac-[Abu]TWQC[AEF][2Nal][αMeK]ENG-NH2 (thioether 1-5) [Ac-Cyclo-[[Abu]-TWQC]-[Phe[4-(2-aminoethoxy)]]-[2-Nal]-[α-MeLys]-ENG-NH2],< 10
6,Ac-R[Abu]QTWQC[AEF][2Nal][αMeK]ENN-NH2 (thioether 2-7) [Ac-Arg-Cyclo-[[Abu]-QTWQC]-[Phe[4-(2-aminoethoxy)]]-[2-Nal]-[α-MeLys]-ENN-NH2],< 10
7,XQTWQCFXKXNG (as bracketed in name; thioether cyclo) [Ac-Cyclo-[[Abu]-QTWQC]-[Phe[4-(2-aminoethoxy)]]-[2-Nal]-[α-MeLys]-[Orn]-NG-NH2],< 10

# The next lines start with the values.
row,pStat3 HTRF IC50 [nM],Binder
1,< 10,Ac-[Abu]QTWQC[AEF][2Nal][αMeS]K(Ac)NG-NH2 (thioether 1-6) [Ac-Cyclo-[[Abu]-QTWQC]-[Phe[4-(2-aminoethoxy)]]-[2-Nal]-[α-MeSer]-[Lys(Ac)]-NG-NH2]
2,< 10,Ac-[Abu]QTWQC[AEF][2Nal][αMeK]NNG-NH2 (thioether 1-6) [Ac-Cyclo-[[Abu]-QTWQC]-[Phe[4-(2-aminoethoxy)]]-[2-Nal]-[α-MeLys]-NNG-NH2]
3,< 10,Ac-[Abu]QTWQC[AEF][2Nal][αMeK][hArg]NG-NH2 (thioether 1-6) [Ac-Cyclo-[[Abu]-QTWQC]-[Phe[4-(2-aminoethoxy)]]-2-Nal]-[α-MeLys]-hRNG-NH2]
4,< 10,Ac-[Abu]QTWQC[AEF][2Nal][αMeK]QNG-NH2 (thioether 1-6) [Ac-Cyclo-[[Abu]-QTWQC]-[Phe[4-(2-aminoethoxy)]]-[2-Nal]-[α-MeLys]-QNG-NH2]
5,< 10,Ac-[Abu]QTWQC[AEF][2Nal][Iva]K(Ac)NG-NH2 (thioether 1-6) [Ac-Cyclo-[[Abu]-QTWQC]-[Phe[4-(2-aminoethoxy)]]-[2-Nal]-[α-Me-Gly(Ethyl)]Lys(Ac)]-NG-NH2]
6,< 10,Ac-[Abu]TTWQC[AEF][2Nal][αMeK]ENG-NH2 (thioether 1-6) [Ac-Cyclo-[[Abu]-TTWQC]-[Phe[4-(2-aminoethoxy)]]-[2-Nal]-[α-MeLys]-ENG-NH2]
7,< 10,Ac-[Abu]QTWQC[AEF][2Nal][αMeK]K(Ac)NG[AEA][dK]-NH2 (thioether 1-6) [Ac-Cyclo-[[Abu]-QTWQC]-[Phe[4-(2-aminoethoxy)]]-[2-Nal][α-MeLys]-[Lys(Ac)]--NG-[AEA]-[(D)Lys]-NH2]
